The record followed here is paper PMC8131915 (The Journal of Biological Chemistry, 2021).

The target of series [1] is SAGA complex (Spt7-TAP purified) (Saccharomyces cerevisiae, UniProt P35177;P38915;P38811;P50875;P06844;Q12060;P38129;P53040;Q05027;Q12030;Q03761;Q03 …). Briefly: fluorescence polarization.
In series [2] the target is SAGA complex (Spt7-TAP purified);TBP (Saccharomyces cerevisiae;Saccharomyces …, UniProt P35177;P38915;P38811;P50875;P06844;Q12060;P38129;P53040;Q05027;Q12030;Q03761;Q03 …, |). Briefly: EMSA. A general note: A gel shift assay detects complexes by their altered migration in electrophoresis.
In series [3] the target is transcription-associated protein 1 (Tra1) (S. cerevisiae (endogenous), UniProt P38811 1-3744). Description: cross-linking.
Chain of transcription-associated protein 1 (Tra1) (P38811 whole entry): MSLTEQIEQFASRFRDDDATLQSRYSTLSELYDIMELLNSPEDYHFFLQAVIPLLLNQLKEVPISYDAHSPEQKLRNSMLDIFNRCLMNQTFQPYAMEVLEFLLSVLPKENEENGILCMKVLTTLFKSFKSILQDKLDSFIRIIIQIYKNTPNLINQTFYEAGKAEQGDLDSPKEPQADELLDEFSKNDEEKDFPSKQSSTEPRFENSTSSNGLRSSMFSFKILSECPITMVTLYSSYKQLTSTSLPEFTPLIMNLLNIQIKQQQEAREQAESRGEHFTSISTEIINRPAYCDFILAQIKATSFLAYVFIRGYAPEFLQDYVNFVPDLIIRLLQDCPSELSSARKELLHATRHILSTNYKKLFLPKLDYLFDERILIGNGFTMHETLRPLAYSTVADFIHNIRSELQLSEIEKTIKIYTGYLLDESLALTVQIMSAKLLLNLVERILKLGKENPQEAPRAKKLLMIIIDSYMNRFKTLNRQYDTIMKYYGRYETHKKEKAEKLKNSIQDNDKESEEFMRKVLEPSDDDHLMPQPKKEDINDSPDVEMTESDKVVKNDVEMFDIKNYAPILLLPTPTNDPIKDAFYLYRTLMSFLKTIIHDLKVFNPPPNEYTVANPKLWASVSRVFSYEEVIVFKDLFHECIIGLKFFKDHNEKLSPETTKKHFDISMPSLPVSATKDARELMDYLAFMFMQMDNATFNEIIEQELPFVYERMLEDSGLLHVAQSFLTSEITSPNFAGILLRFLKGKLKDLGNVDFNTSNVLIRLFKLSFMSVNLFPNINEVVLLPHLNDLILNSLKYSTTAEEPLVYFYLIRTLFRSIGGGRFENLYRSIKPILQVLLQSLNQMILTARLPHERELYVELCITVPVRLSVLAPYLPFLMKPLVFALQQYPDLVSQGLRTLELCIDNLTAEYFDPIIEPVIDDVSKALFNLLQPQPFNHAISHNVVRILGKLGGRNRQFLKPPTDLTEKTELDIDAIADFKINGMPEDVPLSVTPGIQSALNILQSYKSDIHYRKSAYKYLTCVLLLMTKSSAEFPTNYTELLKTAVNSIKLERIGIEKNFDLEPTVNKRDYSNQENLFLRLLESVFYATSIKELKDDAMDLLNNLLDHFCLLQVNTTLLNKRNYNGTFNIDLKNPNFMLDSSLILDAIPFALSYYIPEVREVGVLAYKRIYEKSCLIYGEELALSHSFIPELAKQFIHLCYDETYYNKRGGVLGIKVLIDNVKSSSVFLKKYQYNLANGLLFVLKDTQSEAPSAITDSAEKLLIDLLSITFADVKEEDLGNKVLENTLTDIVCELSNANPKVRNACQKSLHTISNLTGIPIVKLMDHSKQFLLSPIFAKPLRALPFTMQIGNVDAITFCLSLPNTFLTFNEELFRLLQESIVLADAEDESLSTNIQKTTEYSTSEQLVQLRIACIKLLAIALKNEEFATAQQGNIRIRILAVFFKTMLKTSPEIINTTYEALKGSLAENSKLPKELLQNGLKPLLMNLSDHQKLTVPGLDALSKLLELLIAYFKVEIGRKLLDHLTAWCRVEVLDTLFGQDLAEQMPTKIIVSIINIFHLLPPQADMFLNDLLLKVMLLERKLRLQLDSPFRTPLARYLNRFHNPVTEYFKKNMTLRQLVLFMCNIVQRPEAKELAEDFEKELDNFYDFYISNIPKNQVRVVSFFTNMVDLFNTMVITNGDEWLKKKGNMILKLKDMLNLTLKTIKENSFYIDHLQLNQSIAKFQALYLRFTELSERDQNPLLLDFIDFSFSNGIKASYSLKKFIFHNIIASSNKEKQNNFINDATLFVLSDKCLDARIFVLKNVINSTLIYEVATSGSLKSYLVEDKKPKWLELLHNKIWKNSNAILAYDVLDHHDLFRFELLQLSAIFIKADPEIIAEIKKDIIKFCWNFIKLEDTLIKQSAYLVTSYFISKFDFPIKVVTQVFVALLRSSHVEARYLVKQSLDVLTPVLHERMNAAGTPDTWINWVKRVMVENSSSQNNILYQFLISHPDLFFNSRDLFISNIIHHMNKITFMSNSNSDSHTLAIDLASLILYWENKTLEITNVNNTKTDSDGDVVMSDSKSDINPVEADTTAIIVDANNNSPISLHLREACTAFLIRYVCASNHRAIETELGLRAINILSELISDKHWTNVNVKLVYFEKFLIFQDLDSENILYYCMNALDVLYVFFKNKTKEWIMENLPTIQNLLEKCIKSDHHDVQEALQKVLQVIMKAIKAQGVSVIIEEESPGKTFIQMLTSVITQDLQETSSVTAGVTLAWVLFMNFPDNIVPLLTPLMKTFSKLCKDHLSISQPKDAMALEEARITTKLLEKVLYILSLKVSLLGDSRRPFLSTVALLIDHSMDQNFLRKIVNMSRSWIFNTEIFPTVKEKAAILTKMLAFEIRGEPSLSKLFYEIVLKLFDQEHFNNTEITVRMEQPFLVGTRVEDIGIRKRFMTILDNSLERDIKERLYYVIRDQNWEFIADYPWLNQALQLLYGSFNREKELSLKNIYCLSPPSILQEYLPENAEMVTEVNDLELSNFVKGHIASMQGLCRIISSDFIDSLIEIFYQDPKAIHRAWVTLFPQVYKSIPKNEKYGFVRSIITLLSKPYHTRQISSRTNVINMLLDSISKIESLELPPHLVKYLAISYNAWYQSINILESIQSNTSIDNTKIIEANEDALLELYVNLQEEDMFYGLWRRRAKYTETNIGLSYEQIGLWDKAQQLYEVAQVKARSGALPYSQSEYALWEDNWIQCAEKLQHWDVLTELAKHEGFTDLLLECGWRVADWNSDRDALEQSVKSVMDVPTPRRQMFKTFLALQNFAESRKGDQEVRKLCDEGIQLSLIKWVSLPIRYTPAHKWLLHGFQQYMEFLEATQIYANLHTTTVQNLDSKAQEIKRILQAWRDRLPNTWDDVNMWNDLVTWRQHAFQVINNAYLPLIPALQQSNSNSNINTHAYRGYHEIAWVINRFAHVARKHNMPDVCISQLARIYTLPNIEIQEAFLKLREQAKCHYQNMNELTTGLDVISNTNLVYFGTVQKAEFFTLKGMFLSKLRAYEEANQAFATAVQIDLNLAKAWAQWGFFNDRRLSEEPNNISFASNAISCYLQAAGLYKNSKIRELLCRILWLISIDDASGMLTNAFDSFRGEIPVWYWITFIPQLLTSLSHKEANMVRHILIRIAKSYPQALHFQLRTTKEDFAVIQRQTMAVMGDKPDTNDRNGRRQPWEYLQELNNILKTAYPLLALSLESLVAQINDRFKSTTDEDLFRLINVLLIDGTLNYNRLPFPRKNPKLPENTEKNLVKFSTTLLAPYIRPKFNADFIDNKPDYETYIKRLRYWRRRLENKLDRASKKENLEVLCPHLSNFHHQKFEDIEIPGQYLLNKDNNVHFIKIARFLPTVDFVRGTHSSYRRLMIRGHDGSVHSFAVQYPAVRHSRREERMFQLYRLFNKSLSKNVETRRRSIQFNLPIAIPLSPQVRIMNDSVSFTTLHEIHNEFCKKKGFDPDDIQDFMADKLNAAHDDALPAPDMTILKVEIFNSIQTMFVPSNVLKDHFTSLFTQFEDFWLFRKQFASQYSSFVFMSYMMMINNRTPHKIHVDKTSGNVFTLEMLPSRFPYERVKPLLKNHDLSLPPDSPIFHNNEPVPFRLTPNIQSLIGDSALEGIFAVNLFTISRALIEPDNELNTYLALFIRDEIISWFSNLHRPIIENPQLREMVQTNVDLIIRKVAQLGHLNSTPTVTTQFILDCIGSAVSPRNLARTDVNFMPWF

B1: 75-mer ssDNA, HIS4 promoter (ssDNA)
DNA: GCAGGAGGACGTAGGGTAGGACTATGAACAGTAGTATACTGTGTATATAATAGATATGGAACGTTATATTCACCT
By Kd is commonly meant the free concentration of one partner at which half of the binding sites on the other are occupied at equilibrium, for simple one-to-one binding. For B1, the affinity in series [1], expressed as Kd, was 15 ± 11 nM.

B2: 75-mer dsDNA, HIS4 TATA-box promoter (dsDNA)
DNA 1: B1 DNA
DNA 2: AGGTGAATATAACGTTCCATATCTATTATATACACAGTATACTACTGTTCATAGTCCTACCCTACGTCCTCCTGC
Consider B2, for which the binding result in series [2] was “binds”.

B3: Taf12 (natural protein, S. cerevisiae (endogenous), UniProt Q03761 1-539, looked up)
chain: MSSNPENSGVNANNNTGTGNADAITGAQQNMVLQPRQLQEMAAKFRTLLTEARNVGETTPRGKELMFQAAKIKQVYDALTLNRRRQQAAQAYNNTSNSNSSNPASIPTENVPNSSQQQQQQQQQTRNNSNKFSNMIKQVLTPEENQEYEKLWQNFQVRHTSIKEKETYLKQNIDRLEQEINKQTDEGPKQQLQEKKIELLNDWKVLKIEYTKLFNNYQNSKKTFYVECARHNPALHKFLQESTQQQRVQQQRVQQQQQQQQQQQQQQQQQQQQQQQRQGQNQRKISSSNSTEIPSVTGPDALKSQQQQQNTITATNNPRGNVNTSQTEQSKAKVTNVNATASMLNNISSSKSAIFKQTEPAIPISENISTKTPAPVAYRSNRPTITGGSAMNASALNTPATTKLPPYEMDTQRVMSKRKLRELVKTVGIDEGDGETVIDGDVEELLLDLADDFVTNVTAFSCRLAKHRKSDNLEARDIQLHLERNWNIRIPGYSADEIRSTRKWNPSQNYNQKLQSITSDKVAAAKNNGNNVASLNTKK
As for B3, the binding result in series [3] is given as “binds”.

B4: Ada1 (natural protein, S. cerevisiae (endogenous), UniProt Q12060 1-488, looked up)
chain: MSAIQSPAPKPLQPTYPAASPASTNAYMKPGLIGSPAVSNHTEPNNGNNETAEPQGPNQRIDLGAMIEELTSLLGKESWTKYAQIISLFILGKLSRKELSNELELVFSPSAASLEKSNTNHHHSLVRLHNQLLLGIFANSLRENPLGRNGNESSWGFGNGSNNPNNKLKRINKHNSQIEVYKKIVMSLPLNDRNRLKMITKEAGKRGFIFCSVFQARLNNIPKIPIVTNPESLKRVKSNNLKTPLEWSQDIMNGFNVPLASESHSLPDTDSFYLRMVGIAREHGLVGTVDARCVELISLALDQYLKNIIEFTIDTVRYRRKKYSDYYDLNESGLYKSVSEMAADKRDAKIKQLDDDKNEDECADEAKSINNGNNSSKDDIGDISMSSITKAGEAVNEELHENRTISLTNEDIYDSLSIFPNLVEPSGSYYALTNLGLVNDDELVDMKSNIDDLPDFLNEKPTFTPLDERNVGTRHELNWLIKGILTED
For the molecule B4, the binding result in series [3] is given as “binds”.
